# In patent US20260008817A1, “CYCLIC PEPTIDE OR SALT THEREOF, AND USES THEREOF” (FUJIFILM Corporation, priority 2023, published 2026):
# Positions of bridges follow the written chain, without caps; N, C: chain ends. Non-standard residues stand in square brackets, D forms with d. No end group written: not given here. COCH2 = acetyl group that carries the bridge; NMeL = CN[C@@H](CC(C)C)C(=O)O; hLeu = CC(C)CC[C@H](N)C(=O)O; hCys = N[C@@H](CCS)C(=O)O; Orn = NCCC[C@H](N)C(=O)O; Dab = NCC[C@H](N)C(=O)O; Dap = NC[C@H](N)C(=O)O
# Molecular target: T1, Recombinant Human FGFR1 alpha (IIIc) Fc Chimera Protein (Homo sapiens, UniProt P11362)
# T1 construct: purchased R&D systems 658-FR-050
# T1 sequence (P11362 with tags, fused parts or gaps limits assumed): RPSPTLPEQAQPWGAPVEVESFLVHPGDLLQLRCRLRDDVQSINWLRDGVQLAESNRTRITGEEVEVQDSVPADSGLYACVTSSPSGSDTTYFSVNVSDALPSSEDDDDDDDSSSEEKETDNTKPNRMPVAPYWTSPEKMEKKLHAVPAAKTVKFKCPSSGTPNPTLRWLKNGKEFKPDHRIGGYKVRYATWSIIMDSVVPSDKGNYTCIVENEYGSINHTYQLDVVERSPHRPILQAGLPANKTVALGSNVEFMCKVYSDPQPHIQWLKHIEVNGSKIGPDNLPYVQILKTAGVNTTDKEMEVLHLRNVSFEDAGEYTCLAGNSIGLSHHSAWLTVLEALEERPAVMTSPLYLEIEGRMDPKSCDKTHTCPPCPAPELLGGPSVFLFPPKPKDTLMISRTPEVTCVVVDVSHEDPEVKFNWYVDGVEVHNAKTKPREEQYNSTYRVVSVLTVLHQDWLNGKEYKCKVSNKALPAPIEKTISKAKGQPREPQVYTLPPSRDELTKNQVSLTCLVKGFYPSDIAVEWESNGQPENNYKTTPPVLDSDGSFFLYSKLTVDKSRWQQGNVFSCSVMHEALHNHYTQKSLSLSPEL
# Assay: ELISA binding affinity of enzymatically synthesized peptide to FGFR
# Settings: ELISA luminescence signal at 10 nmol/L peptide, SEQ ID NO: 239 standardized to 1; enzyme synthesis product
# How it was run: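 Cell-free PUREfrex-translated cyclic peptides (Myc/HiBiT-tagged, quantified by HiBiT luminescence) bound 3 h at room temperature to immobilized FGFR1α(IIIc)-Fc, detected with anti-Myc and chemiluminescence. FGFR-specific signal at 10 nmol/L normalized to a reference cyclic peptide and graded A–D.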
row,Molecule,Evaluation result of binding affinity to FGFR
1,311 (ICVYTFDAHAQSLHDALTK(COCH2)I; thioether 2-19 (inferred)) [compound 311],A (0.7 or more)
2,312 (ICVYTFDAHAQSLDDALTK(COCH2)I; thioether 2-19 (inferred)) [compound 312],A (0.7 or more)
3,313 (FCVYTFDAHAHSLDAALNK(COCH2)I; thioether 2-19 (inferred)) [compound 313],A (0.7 or more)
4,314 (FCVYTFDAHAHSLHDALNK(COCH2)I; thioether 2-19 (inferred)) [compound 314],A (0.7 or more)
5,315 (FCVYTFDAHAHSLDDALNK(COCH2)I; thioether 2-19 (inferred)) [compound 315],A (0.7 or more)
6,316 (FCVYTFDAHAHSLDAALTK(COCH2)Q; thioether 2-19 (inferred)) [compound 316],A (0.7 or more)
7,317 (FCVYTFDAHAHSLHDALTK(COCH2)Q; thioether 2-19 (inferred)) [compound 317],A (0.7 or more)
8,318 (FCVYTFDAHAHSLDDALTK(COCH2)Q; thioether 2-19 (inferred)) [compound 318],A (0.7 or more)
9,319 (FCVYTFDAHAHSLDAALNK(COCH2)Q; thioether 2-19 (inferred)) [compound 319],A (0.7 or more)
10,320 (FCVYTFDAHAHSLHDALNK(COCH2)Q; thioether 2-19 (inferred)) [compound 320],A (0.7 or more)
11,321 (FCVYTFDAHAHSLDDALNK(COCH2)Q; thioether 2-19 (inferred)) [compound 321],A (0.7 or more)
12,322 (CVYTFDAHAHSLDAALTK(COCH2)I; thioether 1-18 (inferred)) [compound 322],A (0.7 or more)
13,323 (ICVYTFDANAHSLDAALTK(COCH2)I; thioether 2-19 (inferred)) [compound 323],A (0.7 or more)
14,324 (ICVYTFDANAHSLHDALTK(COCH2)I; thioether 2-19 (inferred)) [compound 324],A (0.7 or more)
15,325 (ICVYTFDANAHSLDDALTK(COCH2)I; thioether 2-19 (inferred)) [compound 325],A (0.7 or more)
16,326 (IK(COCH2)VYTFDAHAHSLDAALTCI; thioether 2-19 (inferred)) [compound 326],B (0.5 or more and less than 0.7)

# Molecular target: Recombinant Human FGFR1 alpha (IIIc) Fc Chimera Protein, CF (R&D systems, 658-FR-050) (human) (UniProt P11362)
# Sequence (P11362 22-376, change not shown): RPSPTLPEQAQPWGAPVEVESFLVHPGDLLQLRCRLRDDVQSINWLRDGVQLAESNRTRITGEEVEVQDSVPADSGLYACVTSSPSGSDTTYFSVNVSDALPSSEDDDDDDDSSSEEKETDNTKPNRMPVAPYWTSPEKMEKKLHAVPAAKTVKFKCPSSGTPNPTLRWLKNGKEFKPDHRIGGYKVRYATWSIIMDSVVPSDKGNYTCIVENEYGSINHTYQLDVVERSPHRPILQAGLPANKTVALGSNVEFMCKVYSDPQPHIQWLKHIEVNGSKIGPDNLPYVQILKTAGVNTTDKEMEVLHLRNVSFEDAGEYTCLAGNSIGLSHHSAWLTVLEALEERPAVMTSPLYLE
# Assay: SPR grade, peptide 10 nmol/L over FGFR1-Fc
# Settings: scale: moleculesofcyclicpeptide/onemoleculeoffgfr
row,Molecule,"binding amount (SPR, molecules of cyclic peptide bound per one molecule of FGFR at 10 nmol/L peptide)"
1,A[hCys]VWTFDRHAQEISQALH[Dap](COCH2)VKKK (thioether 2-19) [cyclic peptide SEQ ID NO: 330],> 0.7
2,A[hCys]VWTFDRHAQEISQALHK(COCH2)VKKK (thioether 2-19) [cyclic peptide SEQ ID NO: 327],> 0.7
3,A[hCys]VWTFDRHAQEISQALH[Orn](COCH2)VKKK (thioether 2-19) [cyclic peptide SEQ ID NO: 328],> 0.7
4,FXVYTFDAHAHSLDAALNXIKKK ((Orn(propyl)) and (Hcy) homocysteine joined by a thioether ring) [cyclic peptide SEQ ID NO: 338],0.1 to 0.5
5,A[Orn](COCH2)VWTFDRHAQEISQALH[hCys]VKKK (thioether 2-19) [cyclic peptide SEQ ID NO: 332],> 0.7
6,F[Orn](COCH2)VYTFDAHAHSLDAALN[hCys]IKKK (thioether 2-19) [cyclic peptide SEQ ID NO: 337],0.1 to 0.5
7,A[hCys]VWTFDRHAQEISQALH[Dab](COCH2)VKKK (thioether 2-19) [cyclic peptide SEQ ID NO: 329],0.5 to 0.7
8,ACVWTFDRHAQEISQALHCVKKK (disulfide 2-19) [cyclic peptide SEQ ID NO: 336],< 0.1
9,A[Dap](COCH2)VWTFDRHAQEISQALH[hCys]VKKK (thioether 2-19) [cyclic peptide SEQ ID NO: 334],> 0.7
10,[Orn](COCH2)VYTFDAHAHSLDAALN[hCys]IKKK (thioether 1-18) [cyclic peptide SEQ ID NO: 341],0.1 to 0.5
11,F[Orn](COCH2)VYTFDAHAHS[hLeu]DAALN[hCys]IKKK (thioether 2-19) [cyclic peptide SEQ ID NO: 340],0.5 to 0.7
12,A[Dab](COCH2)VWTFDRHAQEISQALH[hCys]VKKK (thioether 2-19) [cyclic peptide SEQ ID NO: 333],> 0.7
13,AK(COCH2)VWTFDRHAQEISQALH[hCys]VKKK (thioether 2-19) [cyclic peptide SEQ ID NO: 331],0.5 to 0.7
14,F[Orn](COCH2)VYTFDAHAHS[NMeL]DAALN[hCys]IKKK (thioether 2-19) [cyclic peptide SEQ ID NO: 339],0.1 to 0.5
15,F[Orn](COCH2)VYTFDAHAHSLDAALN[hCys]KKK (thioether 2-19) [cyclic peptide SEQ ID NO: 342],0.1 to 0.5
